# Laboratory results as given in paper PMC4365481.
# Assays:
# [1] = molecular target: GST-α-actinin R1-R4 (the whole rod domain) (UniProt P05094); experiment: ELISA; details: ICAM-5 cytoplasmic domains coated on plates and incubated with GST-α-actinin rod domains; values normalized to the level of BSA binding; parent: est. 0.28; read off a plot
# GST-α-actinin R4 = GST-α-actinin R4 (UniProt P05094); experiment: ELISA; details: ICAM-5 cytoplasmic domains coated on plates and incubated with GST-α-actinin rod domains; values normalized to the level of BSA binding; parent: est. 0.020; read off a plot
# GST-α-actinin R2 [2] = molecular target: GST-α-actinin R2 (UniProt P05094); experiment: ELISA; details: ICAM-5 cytoplasmic domains coated on plates and incubated with GST-α-actinin rod domains; values normalized to the level of BSA binding; parent: est. 0.22; read off a plot
# GST-α-actinin R3 = experiment: ELISA; details: ICAM-5 cytoplasmic domains coated on plates and incubated with GST-α-actinin rod domains; values normalized to the level of BSA binding; parent: est. 0.072; read off a plot
# GST-α-actinin R1 = experiment: ELISA; details: ICAM-5 cytoplasmic domains coated on plates and incubated with GST-α-actinin rod domains; values normalized to the level of BSA binding; parent: est. 0.10; read off a plot
# GST-α-actinin R2 [3] = molecular target: GST-α-actinin R2 (UniProt P05094); experiment: pull-down; competition: 2 µg GST-α-actinin R2 on glutathione-sepharose, cross-linked with dimethyl pimelimidate; 1 ml of 250 nM His6-GluN1 cytoplasmic domain with increasing amounts of ICAM-5 cytoplasmic domain, RT 1 h; bound His6-GluN1 by western blotting, band intensities fitted to an exponential decay …
# Sequence of UniProt P05094 (P05094 387-510): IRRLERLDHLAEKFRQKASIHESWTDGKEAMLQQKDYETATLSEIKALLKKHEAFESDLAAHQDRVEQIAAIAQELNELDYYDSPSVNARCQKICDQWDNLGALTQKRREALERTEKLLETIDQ
Substance,response [1] [A492],response (GST-α-actinin R4) [A492],response (GST-α-actinin R2 [2]) [A492],response (GST-α-actinin R3) [A492],response (GST-α-actinin R1) [A492],IC50 (GST-α-actinin R2 [3]) [nM]
ICAM-5 cytoplasmic domain (WT) (from UniProt Q9UMF0) K857A; K858A,0.015,0.022,0.015,0.02,0.035,–
ICAM-5 cytoplasmic domain (WT) (from UniProt Q9UMF0 857-924) (domain or fragment),–,–,–,–,–,55
